Results from US5134121A, “Nerve growth factor peptides” (Regents of the University of California, priority 1991, dated 1992).
Where a SMILES comes first, the peptide text is derived from it.

B1: NGF: purified from male mouse submaxillary gland; β-NGF is a dimer of two identical 118 amino acid chains (protein, UniProt P01139 122-241, looked up)
Beta-nerve growth factor: SSTHPVFHMGEFSVCDSVSVWVGDKTTATDIKGKEVTVLAEVNINNSVFRQYFFETKCRASNPVESGCRGIDSKHWNSYCTTTHTFVKALTTDEKQAAWRFIRIDTACVCVLSRKATRRG
modifications: beta-NGF
notes: purified from male mouse submaxillary gland; β-NGF is a dimer of two identical 118 amino acid chains
B2: NGF denatured by reduction and carbamoylmethylation: NGF (30 μg) denatured by reduction and carbamoylmethylation, used as control (protein, UniProt P01139 122-241, looked up)
Beta-nerve growth factor: SSTHPVFHMGEFSVCDSVSVWVGDKTTATDIKGKEVTVLAEVNINNSVFRQYFFETKCRASNPVESGCRGIDSKHWNSYCTTTHTFVKALTTDEKQAAWRFIRIDTACVCVLSRKATRRG
modifications: beta-NGF reduced and carbamoylmethylated (denatured)
notes: NGF (30 μg) denatured by reduction and carbamoylmethylation, used as control

What was measured:
[1] = test system: embryologic day 10 dorsal root ganglia neurons; assay: Nonspecific toxicity: NGF-independent neurite outgrowth in response to CNTF; assay type: cell-based, chick; settings: up to 2.6 μmoles/ml, FIG. 3
Description: Potential nonspecific toxicity of peptide C5 (KGKE) was investigated with embryologic day 10 dorsal root ganglia neurons which also extend neurites in the presence of ciliary neurotrophic factor (CNTF) The effect of peptide C5 on NGF-independent neurite outgrowth was assessed.

[2] = Resistance to proteolysis during cell culture; assay type: in vitro ADME; settings: 2.0 μmole/ml in culture medium with cells and 100 pg/ml NGF, 24 hr, HPLC
Description: The resistance of peptide C5 to proteolytic cleavage during cell culture was assessed. Quadruplicate wells were prepared each containing 2.0 μmole/ml of peptide in culture medium, 100 pg/ml NGF and cells as described above. After 24 hr in culture, 320 ul (4 wells×80 ul) of culture medium were collected. Fresh culture medium containing 2.0 μmole/ml of peptide was also prepared. Both samples of peptide-containing medium were filtered through a Centricon membrane (Amicon, Bedford) with a molecular weight cutoff of 10,000. 250 μl of filtrate was loaded onto a C18 uBondapak analytic HPLC column and run under the same conditions described above for peptide purification. The quantity of peptides in fresh compared to post-culture medium was determined by integration of their absorbance peaks. After 24 hr in culture, more than 80-85% of the initial quantity of peptide C5 was recovered..

[3] = test system: dissociated embryonic chick dorsal root ganglia neurons; assay: NGF bioassay: support of neurite outgrowth/neuronal survival without NGF (agonist activity); assay type: cell-based; settings: 24 hr culture
Text: After synthesis, the peptides of the present invention may then be assayed to determine their activity in the NGF bioassay using dissociated embryonic chick dorsal root ganglia neurons according to published procedures, such as, for example, Riopelle et al, (1981) J Neurobiol 12:175-186 or Varon et al (1981) Dev Brain Res 1:73-87. […] If the peptide of interest is capable of inhibiting neuronal attachment, survival or neurite outgrowth in the presence of NGF, the peptide is defined as an antagonist. Similarly, if the peptide is capable of supporting neuronal attachment, survival or neurite outgrowth in the absence of NGF, it is defined as an agonist.
NGF bioassays using dissociated embryonic chick dorsal root ganglia neurons have been described (Varon et al, (1981) Dev Brain Res 1:73-87); Riopelle et al, (1981) J Neurobiol 12:175-186). Approximately 30 dorsal root ganglia were dissected from each developmental day 8 chick embryo. […] During this incubation, non-neurons more readily attach to the substratum; therefore, the resulting supernatant contained a relatively enriched neuronal population (80-90% neurons). […]
The results obtained were similar in each experiment; FIG. 1A represents the data obtained from the second experiment. […] Neurite outgrowth was assessed by phase contrast microscopy. The number of neurite-bearing cells in a fixed area of the well was counted. […]

ChAT activity = ChAT activity in brain regions after intraventricular NGF in neonatal hamsters; assay type: in vivo, hamster; settings: for increase in septal ChAT activity relative to vehicle-injected animals: single 30 μg injection PD 7, sacrifice PD 9
Description: The birth of hamster litters was recorded as day zero. Hamsters were sacrificed at various postnatal ages and several brain regions were quickly dissected. The regions sampled included septum (basal forebrain), caudate-putamen, thalamus, hippocampus, frontolateral neocortex, and brainstem. Dissections were performed as described (Johnston et al, (1987) Neurochem Res 12:985-994). Subiculum was included with hippocampus. Caudal midbrain plus pons constituted the brainstem. For prenatal determinations,a timed-pregnancy animal was anesthetized with Nembutal (15 mg, i.p.) and individual embryos were removed and dissected. Whole forebrain was taken in place of frontolateral neocortex in prenatal animals. ChAT activity was determined in selected tissues as described (Mobley et al, (1985) Science 229:284-287).
NGF was prepared by ion-exchange chromatography and characterized as described in the first example. In experiments in which multiple injections were given, NGF (30 μg) was administered intraventricularly (Mobley et al, (1985) supra) on postnatal day (PD) 3, 5 and 7 and sacrifice was on PD 9. Vehicle-injected animals served as controls. In experiments in which a single injection was given, NGF (30 μg) was administered intraventricularly on PD 7 and animals were sacrificed on PD 9. Controls included animals treated with NGF (30 μg) denatured by reduction and carbamoylmethylation (Morris et al, (1971) Neurobiology 1:64-67), or injection vehicle alone.

β-PP mRNA = assay: β-protein precursor mRNA levels after NGF injection in neonatal hamsters; assay type: in vivo, hamster
PrP mRNA = settings: hamster, in vivo
PrP = settings: hamster, in vivo

Molecule	effect on number of neurons bearing neurites in response to CNTF [1]	initial quantity of peptide recovered after culture [2]	concentration giving maximum neurite outgrowth [3]	increase in septal ChAT activity (ChAT activity; 30 μg intraventricularly PD 3, 5, 7, sacrifice PD 9, FIG. 5A)	increase in septal ChAT activity relative to vehicle-injected animals (ChAT activity)	septal ChAT activity (mean±SEM) (ChAT activity; single 30 μg injection PD 7, sacrifice PD 9, n=4)	ChAT activity in caudate-putamen (ChAT activity; single injection, n=3)	increase in ChAT activity in caudate-putamen (ChAT activity; single injection, neonatal hamsters)	increase in β-PP mRNA levels relative to vehicle-injected animals (β-PP mRNA; single treatment on PD7, septum) [fold]	increase in β-PP in thalamus (β-PP mRNA; single treatment, FIG. 6)	effect on PrP mRNA levels in hippocampus (PrP mRNA)	effect on PrP mRNA levels in thalamus (PrP mRNA)	increase in PrP mRNA in caudate-putamen relative to vehicle-injected animals (PrP mRNA) [%]	increase in septal PrP mRNA levels (PrP mRNA)	increase in septal PrP mRNA relative to controls (PrP mRNA)	increase in PrP in septum (Western blot) (PrP) [fold]
NCCCC[C@H](NC(=O)CNC(=O)[C@@H](N)CCCCN)C(=O)N[C@@H](CCC(=O)O)C(N)=O [C5, KGKE-NH2] (H-KGKE-NH2)	no detectable effect	80-85%														
B1			approximately 800 pg/ml	increased almost two-fold	100%	44.0±5.0 nmol acetylcholine (ACh) formed/hr/mg protein	92.4±6.3 nmol acetylcholine (ACh) forme	approximately 65%	4	no increase	no effect	no effect	70	~9 fold	approximately 10 fold	3.3
B2					No increase									No increase		
